Here are results for one protein from article PMC5725599, “Insights into substrate binding of ferulic acid esterases by arabinose and methyl hydroxycinnamate esters and molecular docking” (Scientific Reports, 2017).

Substrate in data set [1]: COC(=O)/C=C/c1ccc(O)c(O)c1
The data set is described as follows: HPLC of released free acid, Michaelis-Menten nonlinear fit. It is filed as biochemical, Aspergillus niger. The following applies: 100 mM MOPS-NaOH pH 6.0, 45 °C, 30 min, substrate stock in DMSO. The text has this: (§1) HPLC of released free acid, Michaelis-Menten nonlinear fit on AnFaeA

Substrate in data set [2]: COC(=O)/C=C/c1ccc(O)c(OC)c1
The data set is described as above. The note with it: 100 mM MOPS-NaOH pH 6.0, 45 °C, 30 min, substrate stock in DMSO. The data set is classed as biochemical, Aspergillus niger.
Excerpt: as §1

B1: AnFaeA (Aspergillus niger) (protein)
chain: ASTQGISEDLYNRLVEMATISQAAYADLCNIPSTIIKGEKIYNAQTDINGWILRDDTSKEIITVFRGTGSDTNLQLDTNYTLTPFDTLPQCNDCEVHGGYYIGWISVQDQVESLVKQQASQYPDYALTVTGHSLGASMAALTAAQLSATYDNVRLYTFGEPRSGNQAFASYMNDAFQVSSPETTQYFRVTHSNDGIPNLPPADEGYAHGGVEYWSVDPYSAQNTFVCTGDEVQCCEAQGGQGVNDAHTTYFGMTSGACTW
notes: recombinant, expressed in Pichia pastoris as described previously
As for B1, the Km (commonly the concentration of substrate that gives half-maximal velocity) worked out at 870 ± 170 µM in data set [1] and 1420 ± 260 µM in data set [2].
